Laboratory results reported in PMC9352680, “A comprehensive thermodynamic model for RNA binding by the Saccharomyces cerevisiae Pumilio protein PUF4”.

Biological target: T1, PUF4 RNA-binding domain (Saccharomyces cerevisiae, UniProt P25339 537-888)
T1 sequence: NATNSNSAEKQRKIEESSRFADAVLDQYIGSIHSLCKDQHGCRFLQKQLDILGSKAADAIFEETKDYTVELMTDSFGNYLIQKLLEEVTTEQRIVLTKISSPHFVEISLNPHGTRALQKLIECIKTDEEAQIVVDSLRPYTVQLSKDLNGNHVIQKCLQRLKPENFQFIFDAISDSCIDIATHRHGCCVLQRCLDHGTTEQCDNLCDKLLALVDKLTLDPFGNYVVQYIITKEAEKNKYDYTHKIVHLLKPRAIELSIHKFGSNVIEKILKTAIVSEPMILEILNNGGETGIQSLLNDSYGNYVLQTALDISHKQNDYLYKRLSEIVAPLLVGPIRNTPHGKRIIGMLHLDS
Test: Mg; RNA-MaP; 20 mM Na-HEPES pH 7.4, 30 mM KOAc, 0.75 mM MgCl2, 0.1% Tween-20, 5% glycerol, 0.1 mg/mL BSA, 2 mM DTT; 25 C; 0.0125-409.6 nM protein
Settings: tags: N-His6-TEV cleaved; C-SNAP kept, Cy3B-labelled; label: tethered on chip by stalled RNA polymerase

Binder | Kd
ACAAACACACACUUAUUAUCACAAAC (ssRNA) [Id_ii_S3_P5E.4_K5.3_C5.2_[C-2A]_[T-1C]_H5.3_A5.1_F5.1_T5.2_[A12C]] | > 2.3 µM
ACAAACAAACACUUAUUAGGACAAAC (ssRNA) [Id_ii_S3_P5E.4_K5.3_C5.2_[C-2A]_[T-1A]_H5.3_A5.1_F5.1_T5.2_[T11G]_[A12G]] | > 2.3 µM
ACAAACAAACACUUAUUACCACAAAC (ssRNA) [Id_ii_S3_P5E.4_K5.3_C5.2_[C-2A]_[T-1A]_H5.3_A5.1_F5.1_T5.2_[T11C]_[A12C]] | > 2.3 µM
ACAAACAAACACUUAUUACAACAAAC (ssRNA) [Id_ii_S3_P5E.4_K5.3_C5.2_[C-2A]_[T-1A]_H5.3_A5.1_F5.1_T5.2_[T11C]] | > 2.3 µM
ACAAACAAACACUUAUUAAGACAAAC (ssRNA) [Id_ii_S3_P5E.4_K5.3_C5.2_[C-2A]_[T-1A]_H5.3_A5.1_F5.1_T5.2_[T11A]_[A12G]] | > 2.3 µM
UCUCUUUAUGUUAUUAUCUCUU (ssRNA) [Ib_S1_P5E.1_K5.1_C5.1_H5.1_[G2A]_[A4G]_A5.1_F5.1_T5.1] | 2.07 µM
ACAAACAAACACUUAUUAAAACAAAC (ssRNA) [Id_ii_S3_P5E.4_K5.3_C5.2_[C-2A]_[T-1A]_H5.3_A5.1_F5.1_T5.2_[T11A]] | > 2.3 µM
ACAAACAAACACUUAUUAUGACAAAC (ssRNA) [Id_ii_S3_P5E.4_K5.3_C5.2_[C-2A]_[T-1A]_H5.3_A5.1_F5.1_T5.2_[A12G]] | > 2.3 µM
ACAAACAAACACUUAUUAUCACAAAC (ssRNA) [Id_ii_S3_P5E.4_K5.3_C5.2_[C-2A]_[T-1A]_H5.3_A5.1_F5.1_T5.2_[A12C]] | > 2.3 µM
ACAAACAAACACUUAUUAUAACAAAC (ssRNA) [Id_ii_S3_P5E.4_K5.3_C5.2_[C-2A]_[T-1A]_H5.3_A5.1_F5.1_T5.2] | > 2.3 µM
ACAAACAUACACUUAUUAGGACAAAC (ssRNA) [Id_ii_S3_P5E.4_K5.3_C5.2_[C-2A]_H5.3_A5.1_F5.1_T5.2_[T11G]_[A12G]] | > 2.3 µM
ACAAACAUACACUUAUUACGACAAAC (ssRNA) [Id_ii_S3_P5E.4_K5.3_C5.2_[C-2A]_H5.3_A5.1_F5.1_T5.2_[T11C]_[A12G]] | > 2.3 µM
ACAAACAUACACUUAUUAAUACAAAC (ssRNA) [Id_ii_S3_P5E.4_K5.3_C5.2_[C-2A]_H5.3_A5.1_F5.1_T5.2_[T11A]_[A12T]] | > 2.3 µM
ACAAACCGACACUUAUUACGACAAAC (ssRNA) [Id_ii_S3_P5E.4_K5.3_C5.2_[T-1G]_H5.3_A5.1_F5.1_T5.2_[T11C]_[A12G]] | > 2.3 µM
ACAAACCGACACUUAUUACCACAAAC (ssRNA) [Id_ii_S3_P5E.4_K5.3_C5.2_[T-1G]_H5.3_A5.1_F5.1_T5.2_[T11C]_[A12C]] | > 2.3 µM
ACAAACCGACACUUAUUACUACAAAC (ssRNA) [Id_ii_S3_P5E.4_K5.3_C5.2_[T-1G]_H5.3_A5.1_F5.1_T5.2_[T11C]_[A12T]] | > 2.3 µM

Binder | Kd
UCUCUUUAUCUUAUUAUCUCUU (ssRNA) [Ib_S1_P5E.1_K5.1_C5.1_H5.1_[G2A]_[A4C]_A5.1_F5.1_T5.1] | > 2.3 µM
ACAAACCGACACUUAUUAUAACAAAC (ssRNA) [Id_ii_S3_P5E.4_K5.3_C5.2_[T-1G]_H5.3_A5.1_F5.1_T5.2] | > 2.3 µM
ACAAACCCACACUUAUUACCACAAAC (ssRNA) [Id_ii_S3_P5E.4_K5.3_C5.2_[T-1C]_H5.3_A5.1_F5.1_T5.2_[T11C]_[A12C]] | > 2.3 µM
ACAAACCCACACUUAUUAAGACAAAC (ssRNA) [Id_ii_S3_P5E.4_K5.3_C5.2_[T-1C]_H5.3_A5.1_F5.1_T5.2_[T11A]_[A12G]] | > 2.3 µM
ACAAACCCACACUUAUUAUGACAAAC (ssRNA) [Id_ii_S3_P5E.4_K5.3_C5.2_[T-1C]_H5.3_A5.1_F5.1_T5.2_[A12G]] | > 2.3 µM
ACAAACCCACACUUAUUAUCACAAAC (ssRNA) [Id_ii_S3_P5E.4_K5.3_C5.2_[T-1C]_H5.3_A5.1_F5.1_T5.2_[A12C]] | > 2.3 µM
ACAAACCCACACUUAUUAUAACAAAC (ssRNA) [Id_ii_S3_P5E.4_K5.3_C5.2_[T-1C]_H5.3_A5.1_F5.1_T5.2] | > 2.3 µM
ACAAACCAACACUUAUUACUACAAAC (ssRNA) [Id_ii_S3_P5E.4_K5.3_C5.2_[T-1A]_H5.3_A5.1_F5.1_T5.2_[T11C]_[A12T]] | > 2.3 µM
ACAAACCUACACUUAUUAGCACAAAC (ssRNA) [Id_ii_S3_P5E.4_K5.3_C5.2_H5.3_A5.1_F5.1_T5.2_[T11G]_[A12C]] | > 2.3 µM
ACAAACCUACACUUAUUACUACAAAC (ssRNA) [Id_ii_S3_P5E.4_K5.3_C5.2_H5.3_A5.1_F5.1_T5.2_[T11C]_[A12T]] | > 2.3 µM
ACAAACCUACACUUAUUAACACAAAC (ssRNA) [Id_ii_S3_P5E.4_K5.3_C5.2_H5.3_A5.1_F5.1_T5.2_[T11A]_[A12C]] | > 2.3 µM
UCUCUUUAUUUUAUUAUCUCUU (ssRNA) [Ib_S1_P5E.1_K5.1_C5.1_H5.1_[G2A]_[A4T]_A5.1_F5.1_T5.1] | 1.55 µM
ACAAACCUACACUUAUUAAAACAAAC (ssRNA) [Id_ii_S3_P5E.4_K5.3_C5.2_H5.3_A5.1_F5.1_T5.2_[T11A]] | > 2.3 µM
ACAAACCUACACUUAUUAUGACAAAC (ssRNA) [Id_ii_S3_P5E.4_K5.3_C5.2_H5.3_A5.1_F5.1_T5.2_[A12G]] | > 2.3 µM
ACAAACCUACACUUAUUAUCACAAAC (ssRNA) [Id_ii_S3_P5E.4_K5.3_C5.2_H5.3_A5.1_F5.1_T5.2_[A12C]] | > 2.3 µM
